Source: US20040107456A1 (ACADEMIA SINICA, published 2004)

B1: GAD-OsMYBS3 fusion protein (other)
chain: MTRRCSHCSHNGHNSRTCPNRGVKIFGVRLTDGSIRKSASMGNLSLLSSAAGSTSGGASPADGPDAAPTAADGYASDDFVQGFSSATRDRKKGVPWTEEEHRRFLLGLQKLGKGDWRGISRNFVVSRTPTQVASHAQKYFIRQSNMTRRKRRSSLFDMVPDESMDLPPLPGGQEPETQVLNQPALPPPKEEEEVDSMESDTSAVAESSSASAIMPDNLQSTYPVIVPAYFSPFLQFSVPFWQNQKDEDGPVQETHEIVKPVPVHSKSPINVDELVGMSKLSIGESNQETESTSLSLNLVGGQNRQSAFHANPPTRAQA
notes: Two-hybrid prey expressed from the Ubi promoter in barley aleurone cells; not shown: limits not
B2: GAD-OsMYBS1 fusion protein (other)
chain: MTSQAATTTTTAAAAAAWTREDDKAFENALAACAAPPPADGGAPDDDWFAALAASVPGARSAEEVRRHYEALVEDVAAIDAGRVPLPRYAGEESAAPPDGAGAAAAASKDGGHRRDERKGGGGGYDGGKSCSKAEQERRKGIPWTEEEHRLFLLGLDKFGKGDWRSISRNFVISRTPTQVASHAQKYFIRLNSMNRDRRRSSIHDITSVTAGDQVAAQQGAPITGHQATGNPAAAALGPPGMKHHHHHHPGGAPPPMPMYSAAPMGHPVAGHMVPAAVGTPVVFPPGHAPYVVPVGYPAPPAKMHQ
notes: as for B1

What was measured:
[1] = biological target: T1, GBD-OsMYBS1 fusion protein (yeast; rice, UniProt P04386 1-147); assay: two-hybrid in barley aleurone cells, luciferase reporter
T1 construct: Two-hybrid bait expressed from the Ubi promoter in barley aleurone cells
Method: (§1) In c-Myb, R2 and R3 bind to specific DNA sequences cooperatively. To test the possibility that OsMYBS binds DNA as dimers, homologous and heterologous interactions among OsMYBS proteins were analyzed using a two-hybrid system in barley aleurone cells. The full-length OsMYBS sequences were individually fused at the C-terminus of GAD or GBD. The GAD-OsMYBS and GBD-OsMYBS chimeric genes were fused downstream of the Ubi promoter and used as effector constructs. A DNA fragment containing five tandem repeats of UAS (5×UAS) was fused upstream of the CaMV35S minimal promoter-Luc chimeric gene and used as a reporter construct. The barley half seeds were particle-bombarded simultaneously with two effector plasmids, each containing GAD-OsMYBS and GBD-OsMYBS fusion genes, and the reporter plasmid. The bombarded half seeds were incubated in buffer without glucose for 24 h, and luciferase activity was determined. […] Except that the background level of reporter gene expression in the presence of GBD-OsMYBS1 alone is too high to detect the interactions between GBD-OsMYBS1 and GAD-OsMYBS proteins, similar results were obtained with the yeast two-hybrid experiments.

[2] = biological target: T2, GBD-OsMYBS3 fusion protein (yeast; rice); assay: two-hybrid in barley aleurone cells, luciferase reporter; similar results in yeast two-hybrid
T2 construct: Two-hybrid bait
Method: as §1

[3] = biological target: T3, GBD-OsMYBS2 fusion protein (yeast; rice); assay: as above
T3 construct: Two-hybrid bait
Method: as §1

Row | Binder | binding result [1] | binding result [2] | binding result [3]
1 | B1 | no binding | no binding | no binding
2 | B2 |  | no binding | no binding
